Experiments:
CRKL [1] = target: T1, CRKL (Homo sapiens, UniProt P46109); experiment: Binding assays with recombinant gst-PSI fusion proteins
Excerpt: FIG. 3A-D: Receptor binding by peptides. FIG. 3A, the recombinant His-tag CRKL (rCRKL), rCRKL-SH3 (N) domain, and rCRKL-SH3 (C) domain bind to the tumor-homing peptide-[…] (SEQ ID NO:1). FIG. 3B, the recombinant His-tag rCRKL, rCRKL-SH3 (N) domain, and rCRKL-SH3 (C) domain bind to the synthetic peptide NSTFLQEGMPTSA (SEQ ID NO:23) corresponding to a region in the PSI domain. FIG. 3C, recombinant gst fusion protein of the entire PSI domain (residues 22-82. SEQ ID NO: 71-[…]), gst-PSI linear (residues 48-62, SEQ ID NO: 72-TNSTFLQEGMPTSAR), gst-PSI cyclic (residues […], SEQ ID NO: 72-CTNSTFLQEGMPTSARC) were generated for binding assays. Both the linear and the cyclic PSI-derived regions bind to CRKL. FIG. 3D, the binding activity of the tumor-homing peptide to rCRKL-SH3 (C) domain is inhibited by the tumor-homing ([…]; SEQ ID NO:1) peptide, by the PSI-derived (NSTFLQEGMPTSA; SEQ ID NO:23) peptide or tumor-homing phage displaying SEQ ID NO:1. Bars represent mean±standard deviation from triplicate wells.
CRKL mutants in the SH3 domain (carboxyl terminal) were generated by PCR mutagenesis. Primer sets were designed to remove 60 bp (Δ1 and Δ2) and 54 bp (Δ3) and maintain the reading frame. For the PSI domain constructs, cyclic and linear peptide forms of the PSI domain were produced. […] Protein-protein interactions were detected by using an antibody against gst.

DU145 cells = experiment: Peptide internalization assay (WST-1 cell viability, annexin-V staining); assay type: cell-based, human; conditions: DU145 cells; measured by cell viability and annexin-V
Procedure: The internalization capability of the tumor-homing peptide fused through a glycinylglycine bridge to a pro-apoptotic sequence was tested as described Arap et al., 2004; Ellerby et al., 1999; Kolonin et al., 2004; Zurita et al., 2004). The conjugated tumor-homing peptide, […] (SEQ ID NO:67)-D(KLAKLAK)2 or the untargeted control peptide D(KLAKLAK)2 were synthesized and increasing equimolar peptide concentrations were added to the DU145 cells. Cell viability was assayed by the WST-1 reagent (Roche) and annexin-V staining for apoptosis (Zurita et al., 2004; Cardo-Vila et al., 2003). For tumor-homing phage localization studies, cells were incubated with 10^9 T.U. tumor-homing ([…]; SEQ ID NO:1) or a negative control (fd-tet) phage for 6 and 24 hours. Wells were washed with 20 mM glycine to remove non-specific cell surface bound phage and then fixed with 4% paraformaldehyde. The non-permeabilized cells were incubated with rabbit anti-fd bacteriophage antibody (Sigma) for 2 hours at room temperature followed by 1 hour incubation with Cy3-labeled anti-rabbit IgG antibody (Jackson ImmunoResearch). Cells were again fixed with 4% paraformaldehyde and mounted in the presence of DAPI (Vector Laboratories) and images were acquired with an Olympus fluorescence microscope.

rCRKL-SH3 (C) domain [2] = target: T2, rCRKL-SH3 (C) domain (Homo sapiens, UniProt P46109); experiment: Inhibition of rCRKL-SH3 (C) domain binding to coated tumor-homing peptide; conditions: inhibitor pre-incubated with rCRKL-SH3 (C)
T2 construct: cDNAs corresponding to each of the SH domains were PCR-amplified and cloned into the Sac I and Xho I restriction sites; His-tag; made in house; host or cells: E. coli BL21
T2 sequence (P46109 235-296 limits assumed): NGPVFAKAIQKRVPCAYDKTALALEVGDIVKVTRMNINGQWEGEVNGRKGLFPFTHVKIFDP
Procedure: (§1) Synthetic tumor-homing peptide ([…]; SEQ ID NO:1) or PSI-derived peptide (NSTFLQEGMPTSA; SEQ ID NO:23) were coated on microtiter plates followed by blocking, and washing. The following recombinant His-tag proteins were added to the coated plates: rCRKL, rCRKL-SH2 domain, rCRKL-SH3 (N) domain, and rCRKL-SH3 (C) domain. An unrelated control protein (α2-Heremans-Schmid glycoprotein; AHSG) served as a negative control. The mixtures were incubated, washed, and labeled with the appropriate antibodies. Secondary antibodies conjugated to horse-radish peroxidase (HRP) were added followed by adding TMB substrate (Calbiochem), and analyzed by an automated ELISA reader (Bio-Tek). To determine the inhibitory activity of the tumor-homing peptide, the PSI-derived peptide, or the phage clone displaying the corresponding tumor-homing peptide were incubated with the rCRKL-SH3 (C) domain. Unrelated cyclic peptide sequences and insertless phage (fd-tet) served as negative controls. The admixtures were incubated and added to wells coated with the tumor-homing peptide. After incubation, the wells were washed, labeled with the appropriate antibodies, and processed as above.

[3] = tested on: human prostate cancer xenografts (DU145-derived); experiment: Therapy in tumor-bearing mice (tumor volume); assay type: in vivo, nude mice; conditions: equimolar amounts, systemically administered, vs untreated or vehicle
Excerpt: Finally, a pilot pre-clinical trial that included four cohorts of size-matched tumor-bearing mice was designed and conducted (FIG. 11). Animals received the following reagents: (i) the synthetic PSI domain-mimic peptide, (ii) the synthetic PSI domain-mimic peptide linked to a pro-apoptotic peptidomimetic (Arap et al., 2004; Ellerby et al., 1999; Kolonin et al., 2004; Zurita et al., 2004) in order to induce targeted apoptosis upon receptor-mediated internalization, (iii) the synthetic pro-apoptotic peptidomimetic alone, or (iv) vehicle alone. All peptides or peptidomimetics were administered at equimolar concentrations.
DU145 tumor-bearing mice were size-matched and divided into individual cohorts (n=4 mice per group). The tumor-homing peptide […] (SEQ ID NO:1) was synthesized fused with the proapoptotic motif D(KLAKLAK)2. Unconjugated peptide […] (SEQ ID NO:1) or D(KLAKLAK)2 served as controls. The synthetic peptides were systemically administered and tumor volumes measured as described (Arap et al., 1998; Arap et al., 2004).

rCRKL-SH2 domain = target: T3, rCRKL-SH2 domain (Homo sapiens, UniProt P46109); experiment: Peptide binding assay with recombinant His-tag proteins (ELISA); conditions: peptide coated on microtiter plates
T3 construct: cDNAs corresponding to each of the SH domains were PCR-amplified and cloned into the Sac I and Xho I restriction sites; His-tag; made in house; host or cells: E. coli BL21
T3 sequence (P46109 14-102 limits assumed): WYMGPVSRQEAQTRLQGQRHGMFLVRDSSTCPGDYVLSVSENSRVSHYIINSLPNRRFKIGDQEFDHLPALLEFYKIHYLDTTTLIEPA
Procedure: as §1

rCRKL = target: T4, rCRKL (Homo sapiens, UniProt P46109); experiment: as above; conditions: peptide coated on microtiter plates
T4 construct: The open reading frame of full-length CRKL cDNA (Invitrogen) was PCR-amplified and cloned in a pET28a (Novagen) expression vector; His-tag; made in house; host or cells: E. coli BL21
T4 sequence (P46109 whole entry): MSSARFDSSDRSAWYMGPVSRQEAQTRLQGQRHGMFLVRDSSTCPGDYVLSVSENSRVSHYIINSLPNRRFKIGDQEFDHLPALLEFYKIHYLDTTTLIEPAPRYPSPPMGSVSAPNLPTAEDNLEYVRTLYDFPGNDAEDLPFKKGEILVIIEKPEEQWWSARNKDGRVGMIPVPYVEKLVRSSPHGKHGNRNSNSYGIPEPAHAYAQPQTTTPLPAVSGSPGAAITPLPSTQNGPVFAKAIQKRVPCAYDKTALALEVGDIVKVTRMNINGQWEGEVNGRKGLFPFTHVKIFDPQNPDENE
Procedure: as §1

rCRKL-SH3 (N) domain = target: T5, rCRKL-SH3 (N) domain (Homo sapiens, UniProt P46109); experiment: as above; conditions: peptide coated on microtiter plates
T5 construct: cDNAs corresponding to each of the SH domains were PCR-amplified and cloned into the Sac I and Xho I restriction sites; His-tag; made in house; host or cells: E. coli BL21
T5 sequence (P46109 123-183 limits assumed): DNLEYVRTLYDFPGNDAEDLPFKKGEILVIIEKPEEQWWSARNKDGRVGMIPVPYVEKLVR
Procedure: as §1

rCRKL-SH3 (C) domain [4] = target: T2, rCRKL-SH3 (C) domain; experiment: as above
Procedure: as §1

CRKL [5] = target: T1, CRKL; experiment: Phage binding assay on purified recombinant protein; parameters: The open reading frame of full-length CRKL cDNA (Invitrogen) was PCR-amplified and cloned in a pET28a (Novagen) expression vector; His-tag; made in house; host or cells: E. coli BL21
Procedure: Phage binding assays on purified proteins were carried out as described (Giordano et al. 2001). Recombinant proteins were coated on microtiter wells as previous described (Cardo-Vila et al., 2003; Smith and Scott, 1993). Briefly, proteins were immobilized on microtiter wells overnight at 4° C. 50 μl of 1 μg/ml in PBS. Wells were washed twice with PBS, blocked with PBS containing 3% BSA for 2 hours at room temperature, and incubated with 10^9 T.U. wild-type tumor-homing phage ([…]; SEQ ID NO:1), scrambled phage ([…] (SEQ ID NO:26), […] (SEQ ID NO:27), […] (SEQ ID NO:29), […] (SEQ ID NO:30)), mutant phage ([…] (SEQ ID NO:25), […] (SEQ ID NO:28)), PSI-derived cyclic phage (CNSTFLQEGMPTSAC; SEQ ID NO:23) or fd-tet phage in 50 μl of PBS containing 1.5% BSA. After 1 hour at room temperature, wells were washed ten times with PBS and phage were recovered by bacterial infection. ELISA with polyclonal anti-CKRL confirmed the presence and concentration of the CKRL recombinant proteins on the wells. […] After 3 hours, binding of CKRL to integrins was detected by using an anti-CKRL antibody followed by an HRP-conjugated anti-rabbit IgG. […]

T1 sequence (P46109 whole entry, the tested form may be a part): as the sequence (P46109 whole entry) above

In the case of CTNSTFLQEGMPTSARC [gst-PSI cyclic], the “binding to CRKL” value (CRKL [1]) is reported as “bind”.
With “YRCTLNSPFFWEDMTHECHA (listed as Homo sapiens) [Peptide 6]” the internalization (DU145 cells) was “mediates ligand-directed internalization”, the “inhibition of binding of the tumor-homing peptide to rCRKL-SH3 (C) domain” value (rCRKL-SH3 (C) domain [2]) was “inhibited” and the “tumor growth / tumor volume” value [3] was “no differences in tumor volume”. For the same sequence, the “tumor growth / tumor volume” value ([3]; listed as PSI domain-mimic peptide) was “no detectable effect”, the “binding through the SH2 domain” value (rCRKL-SH2 domain) was “little to no binding” and the “binding to rCRKL” value (rCRKL) was “bound”. The “binding to rCRKL-SH3 (N) domain” value (rCRKL-SH3 (N) domain) was “bind”, the “binding attributes to the CRKL-SH3 (C) domain (site-directed mutagenesis)” value (rCRKL-SH3 (C) domain [4]) was “dependent on the Pro residue and on the cyclic Cys-Cys disulfide bridge” and the “binding to rCRKL-SH3 (C) domain” value (rCRKL-SH3 (C) domain [4]; peptide coated on microtiter plates) was “bind”.
With “TNSTFLQEGMPTSAR (left off: a dimerising Fc or GST; large carriers; small tags and cut ends) [gst-PSI linear, recombinant gst fusion of linear PSI region, residues 48-62]” the “binding to CRKL” value (CRKL [1]) was “bind”.
With CNSTFLQEGMPTSAC [PSI-derived phage] the “phage binding to recombinant CRKL” value (CRKL [5]) was “bind”.

Reference: US20110189095A1, “CRKL TARGETING PEPTIDES” (The Board of Regents, of the University of Texas System, priority 2008, published 2011)
